Legend:
[1] = target: T1, human complement factor C1q (chains A, B and C) (human, UniProt P02745 23-245; P02746 28-253; P02747 29-245); assay: method not stated; affinity stated in the description
T1 construct: In the assays C1q was the native protein in normal human serum or plasma; also called Human C1q

[2] = target: T1, human complement factor C1q (chains A, …); assay: cell-based or functional assay

T1 sequence (P02745 23-245 limits assumed, chain 1 of 3): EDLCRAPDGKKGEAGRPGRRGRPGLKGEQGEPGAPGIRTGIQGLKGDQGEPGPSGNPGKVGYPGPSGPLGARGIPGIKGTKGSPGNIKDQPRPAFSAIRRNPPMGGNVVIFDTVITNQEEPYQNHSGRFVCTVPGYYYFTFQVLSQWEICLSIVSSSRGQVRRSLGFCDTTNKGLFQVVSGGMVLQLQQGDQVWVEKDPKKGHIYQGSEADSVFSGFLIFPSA
T1 sequence (P02746 28-253 limits assumed, chain 2 of 3): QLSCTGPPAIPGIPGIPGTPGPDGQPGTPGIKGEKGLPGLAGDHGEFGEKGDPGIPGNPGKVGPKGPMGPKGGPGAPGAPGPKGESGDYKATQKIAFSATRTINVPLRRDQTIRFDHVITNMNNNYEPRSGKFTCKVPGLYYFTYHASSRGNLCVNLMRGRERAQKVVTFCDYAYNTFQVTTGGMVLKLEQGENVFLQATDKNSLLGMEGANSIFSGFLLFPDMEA
T1 sequence (P02747 29-245 limits assumed, chain 3 of 3): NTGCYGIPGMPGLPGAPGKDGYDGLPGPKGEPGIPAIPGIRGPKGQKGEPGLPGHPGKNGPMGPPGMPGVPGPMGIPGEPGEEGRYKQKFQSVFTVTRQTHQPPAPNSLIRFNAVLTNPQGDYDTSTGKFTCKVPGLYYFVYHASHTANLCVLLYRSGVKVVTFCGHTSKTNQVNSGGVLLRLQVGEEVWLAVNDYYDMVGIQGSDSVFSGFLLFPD

B1: FabA, anti-C1q antibody Fab fragment comprising heavy chain Fab fragment of SEQ ID NO: 39 and light chain Fab fragment of SEQ ID NO: 40 (Fab)
heavy: QVQLVQSGAELKKPGASVKVSCKSSGYHFTSYWMHWVKQAPGQGLEWIGVIHPNSGSINYNEKFESRVTITVDKSTSTAYMELSSLRSEDTAVYYCAGERDSTEVLPMDYWGQGTTVTVSSASTKGPSVFPLAPSSKSTSGGTAALGCLVKDYFPEPVTVSWNSGALTSGVHTFPAVLQSSGLYSLSSVVTVPSSSLGTQTYICNVNHKPSNTKVDKKVEPKSCDKTHT
light: DVQITQSPSSLSASLGERATINCRASKSINKYLAWYQQKPGKAPKLLIYSGSTLQSGIPARFSGSGSGTDFTLTISSLEPEDFAMYYCQQHNEYPLTFGQGTKLEIKRTVAAPSVFIFPPSDEQLKSGTASVVCLLNNFYPREAKVQWKVDNALQSGNSQESVTEQDSKDSTYSLSSTLTLSKADYEKHKVYACEVTHQGLSSPVTKSFNRGEC
notes: The heavy chain is truncated after the first heavy chain constant domain of IgG1; also called anti-C1q monovalent Fab; anti-C1q Fab
[1]
  Kd: 0.01 nM
[2]
  IC50 for inhibition of hemolysis of CAD-sensitized human RBCs in normal human serum: ~10 nM
  IC50 of inhibition of C4 and C3d deposition on human RBCs (flow cytometry): ~10 nM
